# Article PMC4911930
# Legend:
# [1] = molecular target: Spt16 (human (endogenous in HeLa and U2OS)) (UniProt Q9Y5B9)
# Spt16 956–960A (human) = Spt16 956–960A (human) (UniProt Q9Y5B9); experiment: pull-down; GST-tagged Spt16 fragments and alanine mutants as bait, CENP-T^HFD/-W as prey, GST alone as control; Coomassie gel; also with 1 M NaCl for 926–1047 (Supplemental Fig. S5a)
# Spt16 952–955A (human) = Spt16 952–955A (human) (UniProt Q9Y5B9); experiment: as above
# CENP-T^HFD/-W complex = CENP-T^HFD/-W complex (UniProt Q5EE01); experiment: ITC; Spt16-CTD (amino acids 926–965; 2.2 mM) injected into 200 µL of 150 µM CENP-T/-W, human H2A/H2B or CENP S/X; 20°C; 20 mM Tris pH 7.5, 0.2 M NaCl; single-site model for CENP-T/-W, two-site model for H2A/H2B
# Chain of CENP-T (Q96BT3 whole entry): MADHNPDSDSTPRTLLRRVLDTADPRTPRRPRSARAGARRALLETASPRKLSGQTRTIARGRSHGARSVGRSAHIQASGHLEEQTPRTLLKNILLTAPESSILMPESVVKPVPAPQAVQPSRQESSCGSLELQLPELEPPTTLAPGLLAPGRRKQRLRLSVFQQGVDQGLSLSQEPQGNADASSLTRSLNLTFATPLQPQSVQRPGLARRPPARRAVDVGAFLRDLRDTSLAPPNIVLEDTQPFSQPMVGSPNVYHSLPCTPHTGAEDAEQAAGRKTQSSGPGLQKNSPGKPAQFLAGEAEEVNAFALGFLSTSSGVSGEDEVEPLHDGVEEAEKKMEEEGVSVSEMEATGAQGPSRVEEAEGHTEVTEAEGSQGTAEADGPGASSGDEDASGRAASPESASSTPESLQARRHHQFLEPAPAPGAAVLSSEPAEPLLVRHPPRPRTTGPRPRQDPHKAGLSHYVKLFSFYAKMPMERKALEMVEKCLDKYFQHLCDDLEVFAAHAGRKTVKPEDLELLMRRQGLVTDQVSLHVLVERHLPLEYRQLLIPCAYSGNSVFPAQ
substance,measurement,setting,value
CENP-T (from UniProt Q96BT3 1-561) (natural protein),accumulation of endogenous CENP-T at the LacO locus in cells transfected with eGFP-LacI-Spt16 (immunofluorescence after 24 h),[1],10 % of cells
CENP-T^HFD/-W complex (from UniProt Q5EE01 1-88),percent reduction of binding against unmutated Spt16 926–965,Spt16 956–960A (human),< 60%
same,percent reduction of binding against unmutated Spt16 926–965,Spt16 952–955A (human),< 40%
Spt16-CTD (Spt16 amino acids 926–965) (from UniProt Q9Y5B9 926-965) (domain or fragment),Kd,CENP-T^HFD/-W complex,6.3 µM
